Results from the RNAGym collection of RNA variant scans (doi:10.7554/elife.80360).

B1: Hammerhead Ribozyme (parent)
chain: ACCGGAUGUGCUUUCCGGUCUGAUGAGUCCGUGAGGACGAAACAG

Variants of: B1
Assay: self-cleavage, relative activity (ratio to wild type); higher = more cleavage; co-transcriptional

| Variant | self-cleavage |
| --- | --- |
| ACCGCAUGUGCUUUCCGGUCUGAUGAGUCCGUGAGGUCGAAACAG [G5C A37U] | 0.238 |
| ACCGGGUGUCCUUUCCGGUCUGAUGAGUCCGUGAGGACGAAACAG [A6G G10C] | 0.889 |
| ACCGGAUGUGCUAUCCGGUCUGAUGAGUCCGUGAGGACGCAACAG [U13A A40C] | 0.711 |
| ACCUGAUGUGCUUUCCGGUCUGACGAGUCCGUGAGGACGAAACAG [G4U U24C] | 0.549 |
| ACCGGAUGUGCUUUCCGGUCCGAUCAGUCCGUGAGGACGAAACAG [U21C G25C] | 0.308 |
| ACCGGAUGUGCUUUCCGGUCUGAUGAGUCCGUGAGAACAAAACAG [G36A G39A] | 0.337 |
| ACCGGAUGUCCUUUCCGAUCUGAUGAGUCCGUGAGGACGAAACAG [G10C G18A] | 1.06 |
| ACUGGAUGUGCUUUCCGGUAUGAUGAGUCCGUGAGGACGAAACAG [C3U C20A] | 0.465 |
| ACCGGAUGUGCUUUCCGGACUGAUGAUUCCGUGAGGACGAAACAG [U19A G27U] | 0.26 |
| ACCGGAUGUGCUUUCCGGUCUGAGGAGUCUGUGAGGACGAAACAG [U24G C30U] | 0.996 |
| AGCGGAUGUGCUUUCCGGUCUGAUGAGUCCGUGAGGACCAAACAG [C2G G39C] | 0.289 |
| ACCGGAUGUGCUUUCCGGUCUGAUGAGUGCCUGAGGACGAAACAG [C29G G31C] | 0.74 |
| ACCGUAUGUGCUUUCCGGUCUGAUGAGUCCGGGAGGACGAAACAG [G5U U32G] | 0.367 |
| UUCGGAUGUGCUUUCCGGUCUGAUGAGUCCGUGAGGACGAAACAG [A1U C2U] | 0.598 |
| ACCGGAUGUGCUUUCCGGUCUGAUGAGACCGUGAGGACGAAACAU [U28A G45U] | 0.496 |
| ACCGGAUGUGCUUUCCGGUCUGAUUAGUCCGUCAGGACGAAACAG [G25U G33C] | 0.305 |
| ACCGGAUGUGGUUUCCGGUCUGAUGAGUACGUGAGGACGAAACAG [C11G C29A] | 0.786 |
| ACCGAAUGUGCUUUCCGGUCUGAUGAGUCCAUGAGGACGAAACAG [G5A G31A] | 1.65 |
| ACCGGAUGUGGUUUCCGGUCUGAUGAGCCCGUGAGGACGAAACAG [C11G U28C] | 1.13 |

| Variant | self-cleavage |
| --- | --- |
| ACGGGAUGUGCUUUCCGGUCUGAUGGGUCCGUGAGGACGAAACAG [C3G A26G] | 0.296 |
| ACCGGAUGUUCUUUCCGGUCUGAUGAGGCCGUGAGGACGAAACAG [G10U U28G] | 0.664 |
| ACCGGAUGUGCUUUCCGGUCUGAUGAGUCCGUGCGGAAGAAACAG [A34C C38A] | 0.472 |
| ACCGGAUGUGCUUUCCGGUCUGAUGAGUCCGUGAGAAAGAAACAG [G36A C38A] | 0.345 |
| ACCGGAUGUGCUUUCCGGUCUGAUCAGUCCGUGAGGACAAAACAG [G25C G39A] | 0.33 |
| ACCGGAUGUGCUUUUCGGUCUGAUGAGUCAGUGAGGACGAAACAG [C15U C30A] | 0.696 |
| ACCGGAUGUGCUUUCCGGUCUGAUCAGUCCGUGAGGAGGAAACAG [G25C C38G] | 0.304 |
| AACGAAUGUGCUUUCCGGUCUGAUGAGUCCGUGAGGACGAAACAG [C2A G5A] | 0.37 |
| ACCGGAUGUUCUUUCCGGUUUGAUGAGUCCGUGAGGACGAAACAG [G10U C20U] | 0.579 |
| ACCGAAUGUGCUUUUCGGUCUGAUGAGUCCGUGAGGACGAAACAG [G5A C15U] | 1.78 |
| ACCGGAUGUGCUUUCCGGUCAGAUGAGUCCGUGAGCACGAAACAG [U21A G36C] | 0.283 |
| ACUGGAUGUGGUUUCCGGUCUGAUGAGUCCGUGAGGACGAAACAG [C3U C11G] | 1.25 |
| ACCGGAUGUGCUUUCAGGUCUGAUGAGUCCGUGCGGACGAAACAG [C16A A34C] | 0.799 |
| ACCGGAUGUGCUUUCCGGUCUGAUGAGUCCGUGACGACGACACAG [G35C A41C] | 0.337 |
| ACCGAAUGUGCUUUCAGGUCUGAUGAGUCCGUGAGGACGAAACAG [G5A C16A] | 1.56 |
| ACCGGAUGUGCUUUCCGGUCUGAUGAGUCCCUGAGCACGAAACAG [G31C G36C] | 0.453 |
| ACCGGAUGUGCUUUCCGGUCCGAUGAGUCCGUGAUGACGAAACAG [U21C G35U] | 0.727 |
| ACCGGAUGUGCUUUACGGUCUGAUGAGUCCGUGUGGACGAAACAG [C15A A34U] | 0.879 |
| ACCGGAUGUGCUUUCCGGUCUGAGGAGUCCGUGAGAACGAAACAG [U24G G36A] | 0.862 |

| Variant | self-cleavage |
| --- | --- |
| ACCGGAUGUGCUUUCCGGUCCGAUGAGUCCGUGAGGACGAAACAG [U21C] | 0.877 |
| ACCGGAUGUGCUUUCCGGUCUGCUGAGUACGUGAGGACGAAACAG [A23C C29A] | 0.267 |
| ACCGGAUGUGCUUUCCGGUCUGAUGAUUCCGCGAGGACGAAACAG [G27U U32C] | 0.495 |
| ACCGGAUGAGCUUUCCGGUCUGAUUAGUCCGUGAGGACGAAACAG [U9A G25U] | 0.342 |
| ACCGGAUGUGCUCUCCGGUCUGAUGAGUCCGUGAGGCCGAAACAG [U13C A37C] | 1.07 |
| ACCGGAUAUGCUUUCCGGUCUGAUGAGUACGUGAGGACGAAACAG [G8A C29A] | 0.565 |
| ACCGGAUAUGCUUUCCGGUCUGAUGAGUGCGUGAGGACGAAACAG [G8A C29G] | 0.667 |
| ACCGGAUGUGCUUUACGGUCUGAUGAGUCCGUCAGGACGAAACAG [C15A G33C] | 0.953 |
| ACCGGCUGUGCUUUCCGGUCUGAUGAGUCCGUGAGGACGAAACUG [A6C A44U] | 0.36 |
| ACCGGAUGUGCUUUCCGGUCUGGUGAGUCCCUGAGGACGAAACAG [A23G G31C] | 0.442 |
| ACCGGAUGUGCUUUCCGGUCUGAUGAAUCCGUGAGGGCGAAACAG [G27A A37G] | 0.691 |
| AGCGGAUGUGCUUUCCGGUCUGAUAAGUCCGUGAGGACGAAACAG [C2G G25A] | 0.325 |
| ACCGGAUGAGCUUUCCGGUCUGAUGAGUCCGUGAGCACGAAACAG [U9A G36C] | 0.573 |
| ACCGGAUGAGCUUGCCGGUCUGAUGAGUCCGUGAGGACGAAACAG [U9A U14G] | 1 |
| ACCGGAUGUGCUUUCCGGUCUGAUGAGUCCGUGAGGAUGAUACAG [C38U A41U] | 0.453 |
| ACGGGAUGUGCUUUCCGGUCUGGUGAGUCCGUGAGGACGAAACAG [C3G A23G] | 0.257 |
| ACCGGAUGUGCUUUCUGGUCUGAUGAGUCCGCGAGGACGAAACAG [C16U U32C] | 0.879 |
| GCCGGAUUUGCUUUCCGGUCUGAUGAGUCCGUGAGGACGAAACAG [A1G G8U] | 1.65 |
| AUCGGAUGUGCUUUCCGGUCUGAUGAGUCCGUGAGGACGCAACAG [C2U A40C] | 0.51 |
